Measured values from patent US20130149306A1, “Antagonists of Sema3E/PlexinD1 interaction as anti-cancer agents” (NETRIS PHARMA, priority 2010, published 2013).

Experiments:
[1] = target: PlexinD1-IC D1471N/D1624N (UniProt Q9Y4D7)
[2] = target: T1, in vitro translated intracellular domain of PlexinD1 (hPlexinD1 aa 1293 to 1925) (UniProt Q9Y4D7)
T1 sequence: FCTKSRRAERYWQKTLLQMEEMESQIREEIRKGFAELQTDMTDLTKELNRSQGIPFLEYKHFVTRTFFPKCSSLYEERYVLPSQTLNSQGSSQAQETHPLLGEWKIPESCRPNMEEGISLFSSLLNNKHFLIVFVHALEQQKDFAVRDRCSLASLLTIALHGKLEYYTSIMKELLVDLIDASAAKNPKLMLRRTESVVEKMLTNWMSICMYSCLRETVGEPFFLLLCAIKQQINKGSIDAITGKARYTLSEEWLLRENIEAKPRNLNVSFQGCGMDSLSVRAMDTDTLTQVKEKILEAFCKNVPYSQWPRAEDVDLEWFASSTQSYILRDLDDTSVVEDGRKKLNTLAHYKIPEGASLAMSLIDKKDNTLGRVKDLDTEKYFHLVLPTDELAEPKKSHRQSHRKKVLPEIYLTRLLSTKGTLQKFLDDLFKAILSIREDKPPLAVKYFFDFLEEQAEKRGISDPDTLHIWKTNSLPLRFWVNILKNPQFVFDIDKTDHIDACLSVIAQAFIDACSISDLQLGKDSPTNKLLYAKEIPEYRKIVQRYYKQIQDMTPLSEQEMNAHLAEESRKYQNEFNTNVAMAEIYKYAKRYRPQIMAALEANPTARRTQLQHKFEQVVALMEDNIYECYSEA

[3] = test system: HEK 293T cells transfected with hPlexinD1; experiment: PlexinD1-induced cell death of transfected HEK 293T cells; assay type: cell-based, human; conditions: for Effect of caspase inhibitor on the death effect of PlexinD1: 10 μM, trypan blue exclusion, cleaved Caspase-3 positive cells; for Effect of co-transfected semaphorin vector on PlexinD1-induced cell death: co-transfection with hPlexinD1
Experimental: FIGS. 28-29: HEK 293T cells transfected with an expression control vector or hPlexinD1 were cultured in absence or presence of different caspase inhibitors at 10 μM (caspase-3 (z-DEVD-fmk) and capspase-9 (z-LEHD-fmk), caspase-8 (z-IETD-fmk)). Cell death was measured by trypan blue exclusion-assay (28) or by quantification of the percentage of cleaved Caspase-3 positive cells (29). Activation of caspase-9 and caspase-3 is required for PlexinD1-mediated cell death.
FIG. 30: HEK 293T cells transfected with expression vectors for hPlexinD1, hPlexinD1-RA or a control vector were cultured in the absence or presence of different concentration of Sema3E (10 to 100 ng/ml).
FIG. 31: HEK 293T cells transfected with an expression vector for hPlexinD1 together with expression vector coding for Sema3E, Sema3C or a soluble form of Sema4A.
(§1) Cell death/viability was determined by trypan blue dye exclusion, MTT cell viability assay, calcein assay, and anti-active caspase-3 immunoreactivity. In some experiments, cells were seeded in multiple 24-well plates (5×10^4 cells/well) for 24 h then transfected with different vectors using Lipofectamine Plus (Invitrogen): The different analysis occurred after 48 h (HEK-293T cells) or 72 h (4T1 cells) of serum starvation. In some experiments, cells were cultured in the presence of 10 μM caspase inhibitors: caspase-3 inhibitor II (Z-DEVD-FMK, 264155, VWR), caspase-8 inhibitor II (Z-IETD-FMK, 218759, VWR), and caspase-9 inhibitor II ([…], 218776, VWR).
(§2) For trypan blue exclusion experiments, total cells (adherent and floating) were collected by mechanical detachment and medium collection. Cells were pelleted by slow centrifugation and resuspended in serum-free medium. Trypan blue (0.4%) was added in a ratio of 1:1 to the cell suspension, and the percentage of cell death was measured in a hemacytometer by counting, in a blinded fashion and within a given volume, the number of blue (dead) cells and comparing this number to the total number of cells in this same volume.
(§3) For caspase staining, after immunostaining with anti-active caspase-3 antibody, the percentage of labelled cells was estimated by comparing the number of active caspase-3-stained cells with the total number of cells present on a given surface.

[4] = test system: 4T1 cells; experiment: Cell death/viability in cultures of 4T1 cells; assay type: cell-based, mouse
Experimental: as §1, §2, §3
For assessing cell viability using calcein, cells were plated in OptiMEM medium in 96-well black plates (Greiner Bio-one, Courtaboeuf, France). After 3-6 days in culture, live cells were stained with 0.5 μg/ml green calcein-acetoxymethyl ester (Molecular Probes, Eugene, Oreg.) for 40 minutes at 37° C., and counted using a flash cytometer (Trophos, Marseille, France).
We next used an in vitro assay to evaluate whether SD1 is directly capable of triggering death of tumor cells. […] Similarly, 4T1-SD1 cells, which proliferate at the same rate as 4T1-mock cells during the first 24-48 h in culture, show increased death 72 h after plating, possibly as a result of SD1 accumulation in the culture medium (FIG. 14). […] Thus, SD1 triggers cancer cell death in a PlexinD1 dependent manner.

[5] = target: T2, Sema3E (as printed in the displacement assay and as 'exogenous Sema3E' or Sema3E expression vector in the … (Mus musculus (Mouse), UniProt P70275 26-775)); experiment: displacement of Sema3E binding to PlexinD1-expressing HEK293T cells by SD1 in conditioned medium (1-12 nM)
T2 construct: The methods describe production of mouse AP-Sema3E, which may be the one used in the displacement assay; also called Sema3E ligand; not shown: Alkaline phosphatase (AP) fusion partner, and a His tag if the AP-Sema3E-his construct was used
T2 sequence: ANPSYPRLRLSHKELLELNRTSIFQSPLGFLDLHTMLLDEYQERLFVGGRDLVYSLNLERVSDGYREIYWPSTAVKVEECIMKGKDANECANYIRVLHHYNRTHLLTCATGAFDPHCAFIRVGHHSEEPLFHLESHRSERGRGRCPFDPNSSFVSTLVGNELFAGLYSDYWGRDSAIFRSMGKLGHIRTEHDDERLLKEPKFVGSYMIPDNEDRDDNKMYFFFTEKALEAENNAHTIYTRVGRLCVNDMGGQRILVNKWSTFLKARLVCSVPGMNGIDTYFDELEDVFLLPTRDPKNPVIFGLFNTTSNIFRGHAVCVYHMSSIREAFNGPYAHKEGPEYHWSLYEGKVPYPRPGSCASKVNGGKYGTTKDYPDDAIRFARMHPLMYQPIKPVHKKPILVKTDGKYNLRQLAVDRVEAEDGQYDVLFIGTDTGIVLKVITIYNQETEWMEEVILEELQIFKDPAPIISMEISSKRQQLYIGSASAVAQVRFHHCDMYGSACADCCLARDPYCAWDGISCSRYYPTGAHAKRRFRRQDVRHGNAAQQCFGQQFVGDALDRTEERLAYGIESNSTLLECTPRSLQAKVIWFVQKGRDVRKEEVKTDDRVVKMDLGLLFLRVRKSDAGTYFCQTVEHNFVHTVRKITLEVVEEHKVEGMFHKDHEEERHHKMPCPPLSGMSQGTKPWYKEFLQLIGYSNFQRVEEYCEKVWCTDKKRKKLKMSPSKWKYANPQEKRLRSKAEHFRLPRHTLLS

Molecule: purified active caspase-3
- in vitro cleavage by active caspase-3 (autoradiography) [1]: Mutation of both aspartic acid residues to asparagine (N) within the intracellular domain of PlexinD1 completely suppressed caspase-3 cleavage
- in vitro cleavage by active caspase-3 (autoradiography) [2]: the intracellular domain of PlexinD1 is cleaved by caspase-3, resulting in five protein products that migrate at apparent molecular weight of 16, 24, 30, 37 and 50 kDa

Molecule: z-IETD-fmk [reference compound]
- Effect of caspase inhibitor on the death effect of PlexinD1 [3]: not

Molecule: z-LEHD-fmk [reference compound]
- Effect of caspase inhibitor on the death effect of PlexinD1 [3]: blocked

Molecule: shRNA1: small hairpin RNA targeting mouse Sema3E, SEQ ID NO: 26 (CCGGGCTGCTGAAAGTAATCACAATCTCGAGATTGTGATTACTTTCAGCAGCTTTTTG) [reference compound]
- Death of 4T1 cells on knockdown of Sema3E ([4]; transfection with shRNA to mouse Sema3E): induced death

Molecule: z-DEVD-fmk [reference compound]
- Effect of caspase inhibitor on the death effect of PlexinD1 [3]: blocked

B1: SD1 (sema domain of mouse PlexinD1, aa 61 to 531, fused in frame with six myc epitope tags) (receptor, UniProt Q3UH93 61-531, looked up, not shown: small tags and cut ends)
chain: TNNFALDGTAGTVYLAAVNRLYQLSSANLSLEAEATVGPVPDSPLCHAPQLPQASCEHPRRLTDNYNKILQLDPGQGLVVACGSIYQGLCQLRRRGNISALAVSFPPAAPTAEPVTVFPSMLNVAANHPNASTVGLVLPPTSGTGGSRLLVGATYTGFGSAFFPRNRSLEDHRFENTPEIAIRSLDARGDLAKLFTFDLNPSDDNILKIKQGAKEQHKLGFVRAFLHPAVPPHSAQPYAYLALNSEARAGDKDSQARSLLARICLPRGAGGDAKKLTESYIQLGLQCAGGAGRGDLYSRLVSVFPAREQFFAVFERPQGAPGARNAPAALCAFRFDDVQAAIRAARTACFVEPAPDVVAVLDSVVQGTGPACESKRNIQLQPEQLDCGAAHLQHPLTILQPLRASPVFRAPGLTAVAVASANNYTAVFLGTATGRLLKISLNESMQVVSRRVLTVAYGEPVHHVMQFDPMD
notes: range 61-531; The construct starts with the Ig k-chain secretion signal peptide, left out here as it is a secretion signal; also called SD1 polypeptide; myc-tagged SD1
- IC50 [5]: 5.05 nM

B2: Sema3E: secreted Semaphorin 3E, ligand of PlexinD1; added as exogenous protein or co-transfected vector (protein)
chain: ANPSYPRLRLSHKELLELNRTSIFQSPLGFLDLHTMLLDEYQERLFVGGRDLVYSLNLERVSDGYREIYWPSTAVKVEECIMKGKDANECANYIRVLHHYNRTHLLTCATGAFDPHCAFIRVGHHSEEPLFHLESHRSERGRGRCPFDPNSSFVSTLVGNELFAGLYSDYWGRDSAIFRSMGKLGHIRTEHDDERLLKEPKFVGSYMIPDNEDRDDNKMYFFFTEKALEAENNAHTIYTRVGRLCVNDMGGQRILVNKWSTFLKARLVCSVPGMNGIDTYFDELEDVFLLPTRDPKNPVIFGLFNTTSNIFRGHAVCVYHMSSIREAFNGPYAHKEGPEYHWSLYEGKVPYPRPGSCASKVNGGKYGTTKDYPDDAIRFARMHPLMYQPIKPVHKKPILVKTDGKYNLRQLAVDRVEAEDGQYDVLFIGTDTGIVLKVITIYNQETEWMEEVILEELQIFKDPAPIISMEISSKRQQLYIGSASAVAQVRFHHCDMYGSACADCCLARDPYCAWDGISCSRYYPTGAHAKRRFRRQDVRHGNAAQQCFGQQFVGDALDRTEERLAYGIESNSTLLECTPRSLQAKVIWFVQKGRDVRKEEVKTDDRVVKMDLGLLFLRVRKSDAGTYFCQTVEHNFVHTVRKITLEVVEEHKVEGMFHKDHEEERHHKMPCPPLSGMSQGTKPWYKEFLQLIGYSNFQRVEEYCEKVWCTDKKRKKLKMSPSKWKYANPQEKRLRSKAEHFRLPRHTLLS
- Effect of exogenous Sema3E on SD1-induced death ([4]; exogenous Sema3E 100 ng/ml): sufficient to rescue cells from death
- Effect of exogenous Sema3E on death induced by Sema3E knockdown ([4]; exogenous Sema3E 100 ng/ml, shRNA1): reversed
- Effect of exogenous ligand on PlexinD1-triggered cell death ([3]; Sema3E 10 to 100 ng/ml): inhibited in a dose dependent manner
- Effect of co-transfected semaphorin vector on PlexinD1-induced cell death [3]: saved from cell death

B3: Sema3C: class 3 semaphorin which does not directly bind to PlexinD1; expressed from vector (protein, UniProt Q99985 21-751, looked up)
Semaphorin-3C: GSSQPQARVYLTFDELRETKTSEYFSLSHHPLDYRILLMDEDQDRIYVGSKDHILSLNINNISQEALSVFWPASTIKVEECKMAGKDPTHGCGNFVRVIQTFNRTHLYVCGSGAFSPVCTYLNRGRRSEDQVFMIDSKCESGKGRCSFNPNVNTVSVMINEELFSGMYIDFMGTDAAIFRSLTKRNAVRTDQHNSKWLSEPMFVDAHVIPDGTDPNDAKVYFFFKEKLTDNNRSTKQIHSMIARICPNDTGGLRSLVNKWTTFLKARLVCSVTDEDGPETHFDELEDVFLLETDNPRTTLVYGIFTTSSSVFKGSAVCVYHLSDIQTVFNGPFAHKEGPNHQLISYQGRIPYPRPGTCPGGAFTPNMRTTKEFPDDVVTFIRNHPLMYNSIYPIHKRPLIVRIGTDYKYTKIAVDRVNAADGRYHVLFLGTDRGTVQKVVVLPTNNSVSGELILEELEVFKNHAPITTMKISSKKQQLYVSSNEGVSQVSLHRCHIYGTACADCCLARDPYCAWDGHSCSRFYPTGKRRSRRQDVRHGNPLTQCRGFNLKAYRNAAEIVQYGVKNNTTFLECAPKSPQASIKWLLQKDKDRRKEVKLNERIIATSQGLLIRSVQGSDQGLYHCIATENSFKQTIAKINFKVLDSEMVAVVTDKWSPWTWASSVRALPFHPKDIMGAFSHSEMQMINQYCKDTRQQHQQGDESQKMRGDYGKLKALINSRKSRNRRNQLPES
- Effect of co-transfected semaphorin vector on PlexinD1-induced cell death [3]: no change
